Consider four molecules from patent US20080113905A1 (Eli Lilly, published 2008).

Groups on a side chain read outwards from the residue. No end group written: not given here. *: point of attachment. DSPE = distearoyl phosphatidyl ethanolamine, CCCCCCCCCCCCCCCCCC(=O)OC[C@H](COP(=O)(O)OCCN*)OC(=O)CCCCCCCCCCCCCCCCC; maleimide = Maleimide, used for thiol-reactive attachment of PEG to a Cys (thioether bond)

This experiment has as its target human GLP-1 receptor (human, UniProt P43220 24-463). Description: cell-based or functional assay.
Consider HVEGTFTSDVSSYLEGQAAKEFIAWLVKGRGC([maleimide-PEG 40 kDa branched]) [V8C38-40 kDa PEG], for which the “in vitro potency (EC50) in the CRE-BLAM reporter assay on HEK-293 cells expressing the human GLP-1 receptor, relative to V8GLP-1 equal to 100%” value was found to be 3%.

Turning to HVEGTFTSDVSSYLEGQAAKEFIAWLVKGRGC([maleimide-PEG 3.4 kDa-DSPE]) [V8C38-3.4 kDa DPSE-PEG], the “in vitro potency (EC50) in the CRE-BLAM reporter assay on HEK-293 cells expressing the human GLP-1 receptor, relative to V8GLP-1 equal to 100%” value is 18%.

With HVEGTFTSDC([maleimide-PEG 40 kDa branched])SSYLEEQAAKEFIAWLVKGRG [V8E22C16-40 kDa PEG], the “in vitro potency (EC50) in the CRE-BLAM reporter assay on HEK-293 cells expressing the human GLP-1 receptor, relative to V8GLP-1 equal to 100%” value worked out at 0.7%.

HVEGTFTSDC([maleimide-PEG 3.4 kDa-DSPE])SSYLEGQAAKEFIAWLVKGRG [V8C16-3.4 kDa DPSE-PEG]: the “in vitro potency (EC50) in the CRE-BLAM reporter assay on HEK-293 cells expressing the human GLP-1 receptor, relative to V8GLP-1 equal to 100%” value is 4%.
